Measurements from publication PMC6754446, “Regulation of the endosomal SNX27-retromer by OTULIN” (Nature Communications, 2019).
One block for each binder: values may come before it. No end group written: not given here.

Assays:
Conditions in all cases: both partners purified
OTULINcat (aa 80-352) [1] = target: T1, OTULINcat (aa 80-352) (human, UniProt Q96BN8 80-352); experiment: ITC; SHANK1-3 PDZ in the syringe, OTULINcat in the cell; 30 °C; 20 mM HEPES pH 7.4, 200 mM NaCl, 2 mM TCEP; single-site binding model
OTULINcat (aa 80-352) [2] = target: T1, OTULINcat (aa 80-352); experiment: ITC; PDZ variant (150-450 µM) in the syringe, OTULINcat variant (20-30 µM) in the cell; 25 °C; 20 mM HEPES pH 7.4, 200 mM NaCl, 2 mM TCEP; single-site binding model
SNX27PDZ (aa 40–135) = SNX27PDZ (aa 40–135) (human, UniProt Q96L92 40-135); experiment: ITC; 25 °C, 20 mM HEPES pH 7.4, 200 mM NaCl, 2 mM TCEP; 20–30 µM OTULINcat variant in the cell, 150–450 µM PDZ variant in the syringe; single-site model
OTULINcat (aa 80–352) = target: T2, OTULINcat (aa 80–352) (human, UniProt Q96BN8 80-352); experiment: as above
T2 construct: OTULIN, human, aa 80–352; His6-3C construct in pOPIN-B; tag cleaved with 3C protease; source: E. coli Rosetta2 (DE3) pLacI, purified (HisTrap, anion exchange, SEC)

[3] = target: SNX27 PDZ domain (aa 40-135) (human, UniProt Q96L92 40-135); experiment: ITC; SNX27PDZ in the cell; OTULINcat, OTULIN PDZbm peptide or VPS26A in the syringe; 25 °C; 20 mM HEPES pH 7.4, 200 mM NaCl, 2 mM TCEP; single-site binding model

T1 sequence (Q96BN8 80-352): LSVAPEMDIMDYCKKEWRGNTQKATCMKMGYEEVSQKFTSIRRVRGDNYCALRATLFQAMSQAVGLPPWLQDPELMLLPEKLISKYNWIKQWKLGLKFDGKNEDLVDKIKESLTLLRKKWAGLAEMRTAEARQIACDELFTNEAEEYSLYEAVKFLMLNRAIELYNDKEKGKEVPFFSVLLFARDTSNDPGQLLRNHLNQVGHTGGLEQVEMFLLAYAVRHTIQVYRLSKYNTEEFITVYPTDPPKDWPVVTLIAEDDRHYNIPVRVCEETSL
T2 sequence (Q96BN8 80-352): as above

B2: SHANK1 PDZ domain (654-763) (domain or fragment, UniProt Q9Y566 654-763, looked up)
chain: GSDYIIKEKTVLLQKKDSEGFGFVLRGAKAQTPIEEFTPTPAFPALQYLESVDEGGVAWRAGLRMGDFLIEVNGQNVVKVGHRQVVNMIRQGGNTLMVKVVMVTRHPDMD
notes: source: E. coli, purified analogous to SNX27PDZ (pOPIN-S vector)
Kd (OTULINcat (aa 80-352) [1]): 22.6 µM
stoichiometry N (OTULINcat (aa 80-352) [1]): 1

B4: LNX2 PDZ3 (465-560) (domain or fragment, UniProt Q8N448 465-560, looked up)
chain: QEKHITVKKEPHESLGMTVAGGRGSKSGELPIFVTSVPPHGCLARDGRIKRGDVLLNINGIDLTNLSHSEAVAMLKASAASPAVALKALEVQIVEE
notes: LNX2, third PDZ domain, residues 465-560; The printed DNA (288 nt) fits 96 residues; source: E. coli, purified analogous to SNX27PDZ (pOPIN-S vector)
Kd (OTULINcat (aa 80-352) [2]): 57.1 µM
stoichiometry N (OTULINcat (aa 80-352) [2]): 0.87

B5: OTULIN C-terminal PDZbm peptide (aa 344–352) (peptide, UniProt Q96BN8 344-352, looked up)
peptide: VRVCEETSL
notes: OTULIN, human, aa 344–352; also called OTULIN PDZbm peptide
Kd (SNX27PDZ (aa 40–135)): 1.1 µM

B8: OTULIN C-terminal PDZbm peptide (aa 344-352) (peptide)
peptide: Ac-VRVCEETSL
notes: OTULIN, human, C-terminal PDZbm peptide, aa 344-352; also called OTULIN PDZbm peptide
stoichiometry N [3]: 1.07

B9: NHERF1 PDZ2 (150-235) (domain or fragment, UniProt O14745 150-235, looked up)
chain: LRPRLCTMKKGPSGYGFNLHSDKSKPGQFIRSVDPDSPAEASGLRAQDRIVEVNGVCMEGKQHGDVVSAIRAGGDETKLLVVDRET
notes: The printed DNA (258 nt) fits 86 residues; source: E. coli, purified analogous to SNX27PDZ (pOPIN-S vector)
Kd (OTULINcat (aa 80-352) [2]): 35.6 µM
stoichiometry N (OTULINcat (aa 80-352) [2]): 1.14

B10: RhoGEF PDZ domain (41-123) (domain or fragment, UniProt O15085 41-123, looked up)
chain: TGLVQRCVIIQKDQHGFGFTVSGDRIVLVQSVRPGGAAMKAGVKEGDRIIKVNGTMVTNSSHLEVVKLIKSGAYVALTLLGSS
notes: RhoGEF, PDZ domain, residues 41-123; The printed DNA (249 nt) fits 83 residues; source: E. coli, purified analogous to SNX27PDZ (pOPIN-S vector)
Kd (OTULINcat (aa 80-352) [2]): 38.3 µM
stoichiometry N (OTULINcat (aa 80-352) [2]): 0.96

B11: PSD95 PDZ2 (155-249) (domain or fragment, UniProt P78352 155-249, looked up)
chain: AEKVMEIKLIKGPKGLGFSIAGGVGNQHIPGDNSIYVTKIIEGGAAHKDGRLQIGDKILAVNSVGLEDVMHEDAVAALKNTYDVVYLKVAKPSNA
notes: PSD95, second PDZ domain, residues 155-249; The printed DNA (285 nt) fits 95 residues; source: E. coli, purified analogous to SNX27PDZ (pOPIN-S vector)
Kd (OTULINcat (aa 80-352) [2]): 98.9 µM
stoichiometry N (OTULINcat (aa 80-352) [2]): 0.91

Further lines, results first:

Kd (OTULINcat (aa 80-352) [1]): 23.9 µM
stoichiometry N (OTULINcat (aa 80-352) [1]): 0.99
B1: SHANK2 PDZ domain (239-347) (domain or fragment)
chain: SDCIIEEKTVVLQKKDNEGFGFVLRGAKADTPIEEFTPTPAFPALQYLESVDEGGVAWQAGLRTGDFLIEVNNENVVKVGHRQVVNMIRQGGNHLVLKVVTVTRNLDPD
modifications: Printed 239-347 follows the older 1470-aa Q9UPX8 numbering; offset +379 to the current 1849-aa entry, so that the start falls on SDCIIEEKTV. The His6-SUMO tag was cleaved off.

stoichiometry N (OTULINcat (aa 80-352) [2]): 0.38
B3: Syntenin1 PDZ1 (108-196) (domain or fragment, UniProt Q9JI92 108-196, looked up)
chain: AEIKQGIREVILCKDQDGKIGLRLKSVDNGIFVQLVQANSPASLVGLRFGDQVLQINGENCAGWSSDKAHKVLKQAFGEKITMTIRDRP
notes: Syntenin-1, first PDZ domain, residues 108-196; The printed DNA (267 nt) fits 89 residues; source: E. coli, purified analogous to SNX27PDZ (pOPIN-S vector)

Kd (OTULINcat (aa 80-352) [1]): 26.4 µM
stoichiometry N (OTULINcat (aa 80-352) [1]): 1
B6: SHANK3 PDZ domain (563-671) (domain or fragment)
chain: SDYVIDDKVAVLQKRDHEGFGFVLRGAKAETPIEEFTPTPAFPALQYLESVDVEGVAWRAGLRTGDFLIEVNGVNVVKVGHKQVVALIRQGGNRLVMKVVSVTRKPEED
modifications: Printed 563-671 follows the older 1731-aa SHANK3 numbering; offset +75 to the current 1806-aa entry (inferred by homology to the SHANK2 start, 8 residues before the annotated PDZ). The His6-SUMO tag …

Kd (OTULINcat (aa 80–352)): 1710 µM
B7: Syntenin1 PDZ1 (domain or fragment, UniProt O00560 114-193, looked up)
chain: EVILCKDQDGKIGLRLKSIDNGIFVQLVQANSPASLVGLRFGDQVLQINGENCAGWSSDKAHKVLKQAFGEKITMTIRDR
notes: Syntenin1, PDZ1; source: expressed and purified analogous to SNX27PDZ (E. coli Rosetta2 (DE3) pLacI); His6-SUMO cleaved with SUMO protease
